Data published in patent publication US5620849.

Molecular target: E1/E2 complex (Bovine papillomavirus type 1) (UniProt P03116+P03122)
Test: footprint
Conditions: E1 plus 100 ng E2: equivalent protection of E1 site at 10-fold lower E1 than without E2

UniProt P03116, sequence (P03116 whole entry, chain 1 of 2): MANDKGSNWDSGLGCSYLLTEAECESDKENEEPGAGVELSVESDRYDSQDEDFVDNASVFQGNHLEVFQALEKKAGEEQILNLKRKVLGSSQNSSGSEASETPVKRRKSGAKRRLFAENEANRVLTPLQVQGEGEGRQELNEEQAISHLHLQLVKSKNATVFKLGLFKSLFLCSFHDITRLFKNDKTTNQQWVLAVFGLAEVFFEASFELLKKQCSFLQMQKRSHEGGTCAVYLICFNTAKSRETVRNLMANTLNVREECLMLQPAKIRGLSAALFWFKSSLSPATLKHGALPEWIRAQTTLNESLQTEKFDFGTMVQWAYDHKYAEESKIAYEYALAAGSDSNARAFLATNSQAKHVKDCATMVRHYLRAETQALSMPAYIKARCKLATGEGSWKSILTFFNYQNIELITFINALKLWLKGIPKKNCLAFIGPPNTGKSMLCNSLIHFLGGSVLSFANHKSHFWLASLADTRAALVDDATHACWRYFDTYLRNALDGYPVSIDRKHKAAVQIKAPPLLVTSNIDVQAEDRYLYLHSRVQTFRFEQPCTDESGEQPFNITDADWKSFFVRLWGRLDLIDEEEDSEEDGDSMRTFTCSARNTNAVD
UniProt P03116, sequence (P03122 whole entry, chain 2 of 2): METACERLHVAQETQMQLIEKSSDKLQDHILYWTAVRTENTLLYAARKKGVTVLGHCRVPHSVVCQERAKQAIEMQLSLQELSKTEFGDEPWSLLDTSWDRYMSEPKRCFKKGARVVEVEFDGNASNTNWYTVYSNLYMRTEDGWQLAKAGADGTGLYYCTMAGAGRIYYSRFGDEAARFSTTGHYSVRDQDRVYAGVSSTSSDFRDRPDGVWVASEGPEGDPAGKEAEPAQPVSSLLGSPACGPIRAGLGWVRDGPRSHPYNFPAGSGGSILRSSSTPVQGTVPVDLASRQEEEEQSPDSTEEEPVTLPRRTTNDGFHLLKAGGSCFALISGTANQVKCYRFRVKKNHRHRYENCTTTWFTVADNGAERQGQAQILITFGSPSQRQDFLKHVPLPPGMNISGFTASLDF

With “ACCGAAACCGGTAAGTAAAGACTATGTATTTTTTCCCAGTGAATANBBRBBRBBNNCNNBNNBCACACCATCACCGTT (double strand) [pKSO BPV origin fragment (7805-100)]” as the sequence, how does the binding signal read?
The binding signal was 10 fold.
